Measurements from the Human Domainome abundance scans (Beltran et al. 2025).
± gives the uncertainty stated by the source.

B1: Transcriptional regulator ERG, residues 117 to 197; numbered along this chain, P11308 (parent)
chain: NMTTNERRVIVPADPTLWSTDHVRQWLEWAVKEYGLPDVNILLFQNIDGKELCKMTKDDFQRLTPSYNADILLSHLHYLRE

Variants of: B1
Test: abundance fitness (aPCA) (normalised: wild type 0, dead -1); higher = more abundant; growth selection in yeast, the domain comes from the species named
Settings: Homo sapiens

Variant | abundance fitness
V39N | -0.144 ± 0.077
T64V | -0.028 ± 0.042
D21I | -0.035 ± 0.083
E51Q | -0.017 ± 0.049
L73K | -0.292 ± 0.093
P15G | -0.803 ± 0.088
E6W | 0.037 ± 0.041
T4D | 0.04 ± 0.056
P15A | -0.269 ± 0.053
D59N | -0.24 ± 0.13
W26C | -0.982 ± 0.21
S19K | -0.065 ± 0.052
V39D | -0.241 ± 0.072
Q45C | -0.234 ± 0.082
A13R | 0.043 ± 0.035
D38W | -0.398 ± 0.056
Y67G | 0.078 ± 0.042
D21H | -0.09 ± 0.1
S74G | 0.026 ± 0.039
I71K | 0.074 ± 0.064
M2D | -0.195 ± 0.11

Variant | abundance fitness
L73T | -0.016 ± 0.059
F44S | -0.275 ± 0.052
Q25S | -0.05 ± 0.046
V11I | 0.102 ± 0.051
P65W | -0.109 ± 0.077
S74H | 0.246 ± 0.14
N68F | -0.468 ± 0.19
S19A | -0.223 ± 0.047
T3F | -0.007 ± 0.073
L17H | 0.045 ± 0.15
F60C | -0.306 ± 0.11
R7P | 0.049 ± 0.056
N1F | 0.012 ± 0.076
I41E | -0.053 ± 0.051
P15N | -0.967 ± 0.19
Y78Q | 0.2 ± 0.088
A13T | 0.108 ± 0.065
R24E | -0.211 ± 0.053
M2S | -0.105 ± 0.051
K50W | -0.05 ± 0.04
W18C | -1.04 ± 0.19

Variant | abundance fitness
Y34Q | -0.28 ± 0.084
R62A | 0.022 ± 0.054
P65L | -0.146 ± 0.11
T3C | -0.088 ± 0.066
T64I | -0.345 ± 0.12
D14H | -0.146 ± 0.093
P37M | 0.001 ± 0.049
F44R | -0.278 ± 0.04
P12R | -0.248 ± 0.038
D58Y | 0.004 ± 0.12
T56S | 0.077 ± 0.072
W18F | -0.886 ± 0.25
L42C | -0.051 ± 0.052
D14C | -0.085 ± 0.065
L27W | -0.891 ± 0.14
Q25K | -0.015 ± 0.052
D48H | -0.282 ± 0.11
T3K | -0.109 ± 0.065
P15W | -0.516 ± 0.091
I41G | -0.097 ± 0.035
D70P | -0.316 ± 0.13

Variant | abundance fitness
Q61G | -0.021 ± 0.038
D48K | -0.123 ± 0.062
K32P | -0.468 ± 0.1
L43T | 0.07 ± 0.058
R62Y | -0.138 ± 0.091
D21N | -0.113 ± 0.083
F44Y | -0.081 ± 0.1
H77K | 0.044 ± 0.1
Y67N | 0.138 ± 0.12
Y78E | 0.247 ± 0.059
V23A | -0.68 ± 0.077
Y34H | -0.06 ± 0.094
V11D | 0.013 ± 0.068
N68I | -0.079 ± 0.12
M55N | -0.37 ± 0.25
P12S | -0.209 ± 0.049
L79S | -0.141 ± 0.071
Q61C | -0.037 ± 0.079
I71Y | -0.266 ± 0.14
P37C | 0.017 ± 0.06
D70Y | -0.293 ± 0.18
